Columns and labels:
[1] = biological target: the molecule itself; assay: cryo-EM structure
[2] = biological target: the molecule itself; assay: SEC

B1: nuclease-deactivated AsCas12f1 variant (D225A) (enzyme)
chain: MIKVYRYEIVKPLDLDWKEFGTILRQLQQETRFALNKATQLAWEWMGFSSDYKDNHGEYPKSKDILGYTNVHGYAYHTIKTKAYRLNSGNLSQTIKRATDRFKAYQKEILRGDMSIPSYKRDIPLDLIKENISVNRMNHGDYIASLSLLSNPAKQEMNVKRKISVIIIVRGAGKTIMDRILSGEYQVSASQIIHDDRKNKWYLNISYDFEPQTRVLDLNKIMGIALGVAVAVYMAFQHTPARYKLEGGEIENFRRQVESRRISMLRQGKYAGGARGGHGRDKRIKPIEQLRDKIANFRDTTNHRYSRYIVDMAIKEGCGTIQMEDLTNIRDIGSRFLQNWTYYDLQQKIIYKAEEAGIKVIKIDPQYTSQRCSECGNIDSGNRIGQAIFKCRACGYEANADYNAARNIAIPNIDKIIAESIK
B1: binds [1].

B2: Acidibacillus sulfuroxidans Cas12f1, wild type (enzyme)
chain: MIKVYRYEIVKPLDLDWKEFGTILRQLQQETRFALNKATQLAWEWMGFSSDYKDNHGEYPKSKDILGYTNVHGYAYHTIKTKAYRLNSGNLSQTIKRATDRFKAYQKEILRGDMSIPSYKRDIPLDLIKENISVNRMNHGDYIASLSLLSNPAKQEMNVKRKISVIIIVRGAGKTIMDRILSGEYQVSASQIIHDDRKNKWYLNISYDFEPQTRVLDLNKIMGIDLGVAVAVYMAFQHTPARYKLEGGEIENFRRQVESRRISMLRQGKYAGGARGGHGRDKRIKPIEQLRDKIANFRDTTNHRYSRYIVDMAIKEGCGTIQMEDLTNIRDIGSRFLQNWTYYDLQQKIIYKAEEAGIKVIKIDPQYTSQRCSECGNIDSGNRIGQAIFKCRACGYEANADYNAARNIAIPNIDKIIAESIK
B2 was tested, and the “stoichiometry N” value [2] was 2.
